Laboratory results: the supplement of paper PMC7877785
± gives the uncertainty stated by the source.

Assay: self-splicing fitness, log relative to wild type (ln ratio); higher = more splicing; Tetrahymena group I intron in knt gene, E. coli kanamycin selection, DiMSum; sequences stand for … in CUCUCU…GGAGGGAAAAGUUAUCAGGCAUGCACCUGGUAGCUAGUCUUUAAACCAAUAGAUUGCAUCGGUUUAAAAGGCAAGACCGUCAAAUUGCGGGAAAGGGGUCAACAGCCGUUCAGUACCAAGUCUCAGGGGAAACUUUGAGAUGGCCUUGCAAAGGGUAUGGUAAUAAGCUGACGGACAUGGUCCUAACCACGCAGCCAAGUCCUAAGUCAACAGAUCUUCUGUUGAUAUGGAUGCAGUUCACAGACUAAAUGUCGGUCGGGGAAGAUGUAUUCUUCUCAUAAGAUAUAGUCGGACCUCUCCUUAAUGGGAGCUAGCGGAUGAAGUGAUGCAACACUGGAGCCGCUGGGAACUAAUUUGUAUGCGAAAGUAUAUUGAUUAGUUUUGGAGUACUCGUGGUCG
How it was run: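 Six replicate transformations of E. coli BL21(DE3) with a pET-22b(+) library were grown overnight at 37°C or 30°C. The library randomised all eight P1ex-region intron nucleotides, the intron lying in the knt kanamycin-resistance gene, and plates were LB agar with or without 25 μg/mL kanamycin plus 100 μg/mL carbenicillin, 50 μM IPTG and 0.2% rhamnose. Pooled colonies were amplicon-sequenced on an Illumina HiSeq 2500, and fitness is the DiMSum error-weighted combination of wild-type-normalised replicate fold changes, kanamycin versus none.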

Row | Sequence | self-splicing fitness (ln) (30 °C) | self-splicing fitness (ln) (37 °C)
1 | UGGGAGCAAUAUUACGAAGA | -2.99 ± 0.47 | -2.68 ± 0.33
2 | CUUGAGCAAUAUUACGGCAG | -1.01 ± 0.11 | -0.0287 ± 0.15
3 | UCUGAGCAAUAUUACGAAUA |  | -1.82 ± 0.48
4 | AAUAAGCAAUAUUACGAUAG | -3.78 ± 0.32 | -2.13 ± 0.24
5 | GGCCAGCAAUAUUACGGAAC | -0.685 ± 0.1 | -0.981 ± 0.14
6 | ACCGAGCAAUAUUACGAUCC | -2.86 ± 0.34 | -1.94 ± 0.29
7 | UUGGAGCAAUAUUACGUCGA | -2.6 ± 0.3 | 0.049 ± 0.27
8 | CCUAAGCAAUAUUACGGGCU | -3.03 ± 0.33 | -2.46 ± 0.33
9 | UCGGAGCAAUAUUACGUUAC | -1.87 ± 0.3 | 
10 | AACGAGCAAUAUUACGCUGA | -1.64 ± 0.27 | -2.29 ± 0.39
11 | GAGGAGCAAUAUUACGCUCG | -1.49 ± 0.14 | -1.26 ± 0.22
12 | UGCUAGCAAUAUUACGUGGG | -3.58 ± 0.27 | -3.28 ± 0.35
13 | CUUUAGCAAUAUUACGGCUG | -1.48 ± 0.14 | -0.483 ± 0.14
14 | UGUGAGCAAUAUUACGCUAC | -3 ± 0.32 | 
15 | GUUCAGCAAUAUUACGCAGA | -1.72 ± 0.2 | -1.3 ± 0.17
16 | ACAAAGCAAUAUUACGAAAC |  | -0.88 ± 0.2
17 | AGUAAGCAAUAUUACGCCCC | 0.393 ± 0.41 | -1.15 ± 0.36
18 | CCGUAGCAAUAUUACGGGGC | -2.28 ± 0.24 | -2.31 ± 0.34
19 | CUCGAGCAAUAUUACGGGAA | -3.85 ± 0.35 | -2.42 ± 0.23
20 | GCAUAGCAAUAUUACGUGGG | -3.68 ± 0.13 | -2.82 ± 0.11
21 | AGGUAGCAAUAUUACGUAUA | -2.6 ± 0.023 | -1.45 ± 0.036
22 | GGUCAGCAAUAUUACGAGCG | 0.269 ± 0.081 | -0.0123 ± 0.094
23 | GUGGAGCAAUAUUACGCCGU | 0.631 ± 0.42 | -1.15 ± 0.37
24 | UCGUAGCAAUAUUACGUCUU | -2.7 ± 0.15 | -0.44 ± 0.14
25 | GCAUAGCAAUAUUACGCCAG | -2.88 ± 0.42 | -2.94 ± 0.48

Row | Sequence | self-splicing fitness (ln) (30 °C) | self-splicing fitness (ln) (37 °C)
26 | GGACAGCAAUAUUACGGGAA | -2.7 ± 0.1 | -1.04 ± 0.083
27 | UUACAGCAAUAUUACGUUUC | -3.05 ± 0.17 | -2.53 ± 0.25
28 | UUGCAGCAAUAUUACGUAGC | -2.96 ± 0.3 | 
29 | CCACAGCAAUAUUACGCAGG | -3.97 ± 0.27 | -2.35 ± 0.23
30 | AACGAGCAAUAUUACGCGGA | -2.97 ± 0.2 | -2.01 ± 0.2
31 | GCGAAGCAAUAUUACGACCU | -0.269 ± 0.073 | -0.573 ± 0.086
32 | GAUUAGCAAUAUUACGGCAG | -2.78 ± 0.31 | -1.84 ± 0.23
33 | UACGAGCAAUAUUACGACGU | -2.08 ± 0.23 | -2.12 ± 0.27
34 | CAAAAGCAAUAUUACGGAGA | -2.88 ± 0.28 | -3.43 ± 0.3
35 | UACGAGCAAUAUUACGGGUC | -3.23 ± 0.26 | -3.06 ± 0.43
36 | AUGCAGCAAUAUUACGGGGU | -3.71 ± 0.17 | -2.88 ± 0.18
37 | GCUAAGCAAUAUUACGGUCA | -0.887 ± 0.13 | -0.914 ± 0.15
38 | UUAAAGCAAUAUUACGGCAG | 0.129 ± 0.086 | 0.214 ± 0.11
39 | CCUGAGCAAUAUUACGUCAA | -2.73 ± 0.22 | -2.36 ± 0.3
40 | UGGAAGCAAUAUUACGGCUG | -0.475 ± 0.099 | 1.02 ± 0.12
41 | UCUGAGCAAUAUUACGACUU | -3.11 ± 0.33 | 
42 | AGUUAGCAAUAUUACGUUGA | -2.03 ± 0.31 | -2.02 ± 0.39
43 | AAAAAGCAAUAUUACGCUCG | -0.161 ± 0.11 | 0.0542 ± 0.14
44 | ACCAAGCAAUAUUACGGCUU | -3.85 ± 0.2 | -1.85 ± 0.16
45 | CACAAGCAAUAUUACGGAUU | -3.91 ± 0.2 | -2.61 ± 0.2
46 | UAUGAGCAAUAUUACGAGGG | -3.93 ± 0.42 | -2.66 ± 0.29
47 | UAAGAGCAAUAUUACGAUAU | -3.22 ± 0.24 | -2.86 ± 0.28
48 | CGAAAGCAAUAUUACGCUAU | -4.13 ± 0.36 | -2.4 ± 0.27
49 | AAACAGCAAUAUUACGGGCG | -2.12 ± 0.09 | -1.41 ± 0.12
